Data from patent publication US20120316071A1 (published 2012).

Assays:
[1] = molecular target: T1, rHuman IGF-1 sR, CF (R&D Systems Cat#391-GR) (human, UniProt P08069 31-932); experiment: Multispot ECL
T1 construct: bought soluble receptor; also called insulin-like growth factor-1 soluble receptor

[2] = molecular target: T2, Recombinant Human DLL4 (R&D Systems Cat#1506-D4/CF) (human, UniProt Q9NR61 27-524); experiment: Multispot ECL titration
T2 construct: bought recombinant protein; also called rHuman DLL4; delta-like protein 4

[3] = molecular target: T2, Recombinant Human DLL4 (R&D Systems …); experiment: control in the Notch reporter assay; binding assay not described
[4] = molecular target: T3, rHuman IGF-1 sR, (IGF-1 sR), CF (R&D Systems Cat#391-GR) (human, UniProt P08069 31-932); experiment: Multispot ECL (MSD), antigen spotted on plate, Fab 580 nM; blank spot 679
T3 construct: Bought recombinant soluble receptor; also called insulin-like growth factor-1 soluble receptor

[5] = molecular target: T4, rHuman ErbB2/Fc Chimera, CF (R&D Systems Cat#1129-ER) (human, UniProt P04626 23-652); experiment: as above
T4 construct: Bought recombinant protein; also called human epidermal growth factor 2 receptor; Fc part of the bought chimera not given

[6] = molecular target: T5, Recombinant Human DLL4 (R&D Systems Cat#1506-D4/CF) (human, UniProt Q9NR61 27-524); experiment: as above
T5 construct: Bought recombinant protein; also called rHuman DLL4; delta-like protein 4

[7] = molecular target: T6, rHuman HGF R/c-MET/Fc Chimera, CF (R&D Systems Cat#358-MT/CF) (human, UniProt P08581 25-932); experiment: as above
T6 construct: Bought recombinant protein; also called HGF R/Fc; hepatocyte growth factor receptor; Fc part of the bought chimera not given
T6 sequence (P08581 25-932, change not shown): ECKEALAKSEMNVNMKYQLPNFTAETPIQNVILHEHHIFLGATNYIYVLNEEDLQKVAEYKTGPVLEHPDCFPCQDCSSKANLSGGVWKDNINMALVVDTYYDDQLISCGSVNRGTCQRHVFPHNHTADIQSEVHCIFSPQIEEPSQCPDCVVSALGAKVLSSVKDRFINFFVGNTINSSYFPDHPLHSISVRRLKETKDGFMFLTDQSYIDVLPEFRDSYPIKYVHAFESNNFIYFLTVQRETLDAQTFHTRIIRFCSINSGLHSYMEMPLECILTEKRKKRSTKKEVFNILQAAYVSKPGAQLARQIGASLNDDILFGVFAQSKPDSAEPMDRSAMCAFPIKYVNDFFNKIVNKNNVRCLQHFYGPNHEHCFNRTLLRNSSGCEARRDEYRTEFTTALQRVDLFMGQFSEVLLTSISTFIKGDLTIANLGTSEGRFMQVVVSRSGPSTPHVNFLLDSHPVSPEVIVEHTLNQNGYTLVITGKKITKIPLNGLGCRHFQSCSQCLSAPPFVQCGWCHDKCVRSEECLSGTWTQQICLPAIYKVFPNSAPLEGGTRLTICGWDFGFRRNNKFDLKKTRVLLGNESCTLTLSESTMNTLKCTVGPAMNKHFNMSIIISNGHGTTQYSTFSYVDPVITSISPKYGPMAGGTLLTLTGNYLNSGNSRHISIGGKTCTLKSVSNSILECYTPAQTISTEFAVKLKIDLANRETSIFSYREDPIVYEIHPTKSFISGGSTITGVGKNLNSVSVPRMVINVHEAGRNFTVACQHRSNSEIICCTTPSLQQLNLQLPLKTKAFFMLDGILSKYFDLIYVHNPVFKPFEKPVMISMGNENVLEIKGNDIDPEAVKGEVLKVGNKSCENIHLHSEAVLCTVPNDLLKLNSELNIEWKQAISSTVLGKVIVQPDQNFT

[8] = molecular target: T7, rHuman EGF R/Fc Chimera, CF (R&D Systems Cat#344-ER) (human, UniProt P00533 25-645); experiment: as above
T7 construct: Bought recombinant protein; also called epidermal growth factor receptor; Fc part of the bought chimera not given

[9] = molecular target: T3, rHuman IGF-1 sR, (IGF-1 sR), CF (R&D …); experiment: Multispot ECL (MSD), antigen spotted on plate, Fab 9.1 nM; blank spot 276
[10] = molecular target: T4, rHuman ErbB2/Fc Chimera, CF (R&D …); experiment: as above
[11] = molecular target: T5, Recombinant Human DLL4 (R&D Systems …); experiment: as above
[12] = molecular target: T6, rHuman HGF R/c-MET/Fc Chimera, CF (R&D …); experiment: as above
[13] = molecular target: T7, rHuman EGF R/Fc Chimera, CF (R&D …); experiment: as above
[14] = molecular target: T3, rHuman IGF-1 sR, (IGF-1 sR), CF (R&D …); experiment: Multispot ECL (MSD), antigen spotted on plate, Fab 145 nM; blank spot 357
[15] = molecular target: T5, Recombinant Human DLL4 (R&D Systems …); experiment: as above
[16] = molecular target: T6, rHuman HGF R/c-MET/Fc Chimera, CF (R&D …); experiment: as above
[17] = molecular target: T7, rHuman EGF R/Fc Chimera, CF (R&D …); experiment: as above
[18] = molecular target: T3, rHuman IGF-1 sR, (IGF-1 sR), CF (R&D …); experiment: Multispot ECL (MSD), antigen spotted on plate, Fab 36.3 nM; blank spot 314
[19] = molecular target: T4, rHuman ErbB2/Fc Chimera, CF (R&D …); experiment: as above
[20] = molecular target: T5, Recombinant Human DLL4 (R&D Systems …); experiment: as above
[21] = molecular target: T6, rHuman HGF R/c-MET/Fc Chimera, CF (R&D …); experiment: as above
[22] = molecular target: T7, rHuman EGF R/Fc Chimera, CF (R&D …); experiment: as above

B1: Fab VH1-46_IGHD6-6*01_IGHJ1*01 S102A/S103P/S104F & L6_IGKJ1*01 (Fab, V domains shown)
VH: QVQLVQSGAEVKKPGASVKVSCKASGYTFTSYYMHWVRQAPGQGLEWMGIINPSGGSTSYAQKFQGRVTMTRDTSTSTVYMELSSLRSEDTAVYYCAREEYAPFSAEYFQHWGQGTLVTVSS
VL: not shown
notes: Fab; also called H:APF & L:wt; APF triple mutant
B1 was tested, and the binding result [1] was “no binding” and the “fold binding affinity against the parent antibody” value [2] was 10 fold.

B2: control Fab VH6-1_IGHD6-13*01_IGHJ4*01 and V2-17_IGLJ2*01 (Fab, V domains shown)
VH: QVQLQQSGPGLVKPSQTLSLTCAISGDSVSSNSAAWNWIRQSPSRGLEWLGRTYYRSKWYNDYAVSVKSRITINPDTSKNQFSLQLNSVTPEDTAVYYCAREGYSSSWYDYFDYWGQGTLVTVSS
VL: SYELTQPPSVSVSPGQTARITCSGDALPKQYAYWYQQKPGQAPVLVIYKDSERPSGIPERFSGSSSGTTVTLTISGVQAEDEADYYCQSADSSGTYPVVFGGGTKLTVL
B2: no binding [3].

B3: Fab VH4-34_IGHD7-27*01_IGHJ4*01 & V1-4_IGLJ4*01 (Fab, V domains shown)
VH: QVQLQQWGAGLLKPSETLSLTCAVYGGSFSGYYWSWIRQPPGKGLEWIGEINHSGSTNYNPSLKSRVTISVDTSKNQFSLKLSSVTAADTAVYYCARANWGDYFDYWGQGTLVTVSS
VL: QSALTQPASVSGSPGQSITISCTGTSSDVGGYNYVSWYQQHPGKAPKLMIYEVSNRPSGVSNRFSGSKSGNTASLTISGLQAEDEADYYCSSYTSSSTLFVFGGGTQLIIL
notes: Tested as a Fab made in E. coli; The heavy chain variable region was cloned into Plasmid A (CH1 constant region, His6 and Flag tags); The lambda light chain variable region was cloned into Plasmid E (lambda CL); Only the variable domains are tied to this Fab by name
B3 was tested, and the “ECL signal at 580 nM Fab” value [4] was 1360, the “ECL signal at 580 nM Fab” value [5] was 1710 and the “ECL signal at 580 nM Fab” value [6] was 4420. The “ECL signal at 580 nM Fab” value [7] was 2340, the “ECL signal at 580 nM Fab” value [8] was 1630 and the “ECL signal at 9.1 nM Fab” value [9] was 788. For the same binder, the “ECL signal at 9.1 nM Fab” value [10] was 987, the “ECL signal at 9.1 nM Fab” value [11] was 1030 and the “ECL signal at 9.1 nM Fab” value [12] was 894. For the same binder, the “ECL signal at 9.1 nM Fab” value [13] was 800, the “ECL signal at 145 nM Fab” value [14] was 794 and the “ECL signal at 145 nM Fab” value [15] was 2140. For the same binder, the “ECL signal at 145 nM Fab” value [16] was 1170, the “ECL signal at 145 nM Fab” value [17] was 856 and the “ECL signal at 36.3 nM Fab” value [18] was 799. For the same binder, the “ECL signal at 36.3 nM Fab” value [19] was 1030, the “ECL signal at 36.3 nM Fab” value [20] was 1400 and the “ECL signal at 36.3 nM Fab” value [21] was 1060. The “ECL signal at 36.3 nM Fab” value [22] was 831.
